How the values were obtained:
Assay in all cases: cell-based or functional assay
[1] = target: HIV-1 Env of pseudovirus 1054_07_TC4_1499 (HIV-1)
[2] = target: HIV-1 Env of pseudovirus C4118.c09 (HIV-1)
[3] = target: HIV-1 Env of pseudovirus ZM109F.PB4 (HIV-1)
[4] = target: HIV-1 Env of pseudovirus X1632_S2_B10 (HIV-1)
[5] = target: HIV-1 Env of pseudovirus C3347.c11 (HIV-1)
[6] = target: HIV-1 Env of pseudovirus Ce2010_F5 (HIV-1)
[7] = target: HIV-1 Env of pseudovirus BJOX025000.01.1 (HIV-1)
[8] = target: HIV-1 Env of pseudovirus CNE5 (HIV-1)
[9] = target: HIV-1 Env of pseudovirus P0402_c2_11 (HIV-1)
[10] = target: HIV-1 Env of pseudovirus 231966.c02 (HIV-1)
[11] = target: HIV-1 Env of pseudovirus 62357_14_D3_4589 (HIV-1)
[12] = target: HIV-1 Env of pseudovirus 1394C9G1(Rev-) (HIV-1)
[13] = target: HIV-1 Env of pseudovirus CAP45.2.00.G3 (HIV-1)
[14] = target: HIV-1 Env of pseudovirus 6480.v4.c25 (HIV-1)
[15] = target: HIV-1 Env of pseudovirus ZM214M.PL15 (HIV-1)
[16] = target: HIV-1 Env of pseudovirus Du156.12 (HIV-1)
[17] = target: HIV-1 Env of pseudovirus 6952.v1.c20 (HIV-1)
[18] = target: HIV-1 Env of pseudovirus 6244_13_B5_4576 (HIV-1)
[19] = target: HIV-1 Env of pseudovirus T251-18 (HIV-1)
[20] = target: HIV-1 Env of pseudovirus 191955_A11 (HIV-1)
[21] = target: HIV-1 Env of pseudovirus Du422.1 (HIV-1)
[22] = target: HIV-1 Env of pseudovirus X1193_c1 (HIV-1)
[23] = target: HIV-1 Env of pseudovirus BJOX010000.06.2 (HIV-1)
[24] = target: HIV-1 Env of pseudovirus CNE58 (HIV-1)
[25] = target: HIV-1 Env of pseudovirus SC422661.8 (HIV-1)
[26] = target: HIV-1 Env of pseudovirus CNE30 (HIV-1)
[27] = target: HIV-1 Env of pseudovirus Du172.17 (HIV-1)
[28] = target: HIV-1 Env of pseudovirus CNE20 (HIV-1)
[29] = target: HIV-1 Env of pseudovirus C1080.c03 (HIV-1)
[30] = target: HIV-1 Env of pseudovirus THRO4156.18 (HIV-1)
[31] = target: HIV-1 Env of pseudovirus Ce0682_E4 (HIV-1)
[32] = target: HIV-1 Env of pseudovirus R3265.c06 (HIV-1)
[33] = target: HIV-1 Env of pseudovirus T257-31 (HIV-1)
[34] = target: HIV-1 Env of pseudovirus Q842.d12 (HIV-1)
[35] = target: HIV-1 Env of pseudovirus 6540.v4.c1 (HIV-1)
[36] = target: HIV-1 Env of pseudovirus 246F C1G (HIV-1)
[37] = target: HIV-1 Env of pseudovirus 0260.v5.c36 (HIV-1)

Substance NIH 45-46 (antibody) has a neutralization IC50 [1] of 0.07 mg/L, a neutralization IC80 [1] of 0.61 mg/L and an IC50, titer in TZM.bl cells [2] of 0.14 mg/L. The IC80, titer in TZM.bl cells [2] was 0.91 mg/L, the neutralization IC50 [3] was 0.22 mg/L and the neutralization IC80 [3] was 0.22 mg/L. The IC50, titer in TZM.bl cells [4] was 0.07 mg/L, the IC80, titer in TZM.bl cells [4] was greater than 50 mg/L and the IC50, titer in TZM.bl cells [5] was 0.03 mg/L. The IC80, titer in TZM.bl cells [5] was 0.18 mg/L, the neutralization IC50 [6] was 0.13 mg/L and the neutralization IC80 [6] was 0.43 mg/L. It also gave an IC50, titer in TZM.bl cells [7] of 0.18 mg/L, an IC80, titer in TZM.bl cells [7] of 10 mg/L and an IC50, titer in TZM.bl cells [8] of 0.09 mg/L. The IC80, titer in TZM.bl cells [8] was 0.41 mg/L, the IC50, titer in TZM.bl cells [9] was 0.06 mg/L and the IC80, titer in TZM.bl cells [9] was 0.26 mg/L. The IC50, titer in TZM.bl cells [10] was 1.11 mg/L, the IC80, titer in TZM.bl cells [10] was 11.4 mg/L and the neutralization IC50 [11] was 0.05 mg/L. It also gave a neutralization IC80 [11] of 0.22 mg/L, a neutralization IC50 [12] of 0.09 mg/L and a neutralization IC80 [12] of 0.38 mg/L. The neutralization IC50 [13] was greater than 50 mg/L, the neutralization IC80 [13] was greater than 50 mg/L and the IC50, titer in TZM.bl cells [14] was 0.02 mg/L. It also gave an IC80, titer in TZM.bl cells [14] of 0.08 mg/L, a neutralization IC50 [15] of 0.05 mg/L and a neutralization IC80 [15] of 0.39 mg/L. For the same substance, the neutralization IC50 [16] was 0.01 mg/L, the neutralization IC80 [16] was 0.05 mg/L and the IC50, titer in TZM.bl cells [17] was 0.02 mg/L. For the same substance, the IC80, titer in TZM.bl cells [17] was 0.07 mg/L, the neutralization IC50 [18] was 0.07 mg/L and the neutralization IC80 [18] was 0.26 mg/L. It also gave an IC50, titer in TZM.bl cells [19] of 5.26 mg/L, an IC80, titer in TZM.bl cells [19] of 5.26 mg/L and a neutralization IC50 [20] of 0.11 mg/L. For the same substance, the neutralization IC80 [20] was 0.43 mg/L, the neutralization IC50 [21] was greater than 50 mg/L and the neutralization IC80 [21] was greater than 50 mg/L. It also gave an IC50, titer in TZM.bl cells [22] of 0.04 mg/L, an IC80, titer in TZM.bl cells [22] of 0.16 mg/L and an IC50, titer in TZM.bl cells [23] of 0.87 mg/L. For the same substance, the IC80, titer in TZM.bl cells [23] was 6.37 mg/L, the neutralization IC50 [24] was 0.25 mg/L and the neutralization IC80 [24] was 1.49 mg/L. The neutralization IC50 [25] was 0.01 mg/L, the neutralization IC80 [25] was 0.07 mg/L and the neutralization IC50 [26] was 0.34 mg/L. It also gave a neutralization IC80 [26] of 1.48 mg/L, a neutralization IC50 [27] greater than 30 mg/L and a neutralization IC80 [27] greater than 30 mg/L. For the same substance, the neutralization IC50 [28] was 8.71 mg/L, the neutralization IC80 [28] was 47 mg/L and the IC50, titer in TZM.bl cells [29] was 1.79 mg/L. It also gave an IC80, titer in TZM.bl cells [29] of 18 mg/L, a neutralization IC50 [30] of 1.59 mg/L and a neutralization IC80 [30] of 6.02 mg/L. The neutralization IC50 [31] was 0.07 mg/L, the neutralization IC80 [31] was 0.25 mg/L and the IC50, titer in TZM.bl cells [32] was 0.04 mg/L. For the same substance, the IC80, titer in TZM.bl cells [32] was 0.44 mg/L, the neutralization IC50 [33] was 0.23 mg/L and the neutralization IC80 [33] was 1.11 mg/L. For the same substance, the neutralization IC50 [34] was 0.03 mg/L, the neutralization IC80 [34] was 0.03 mg/L and the IC50, titer in TZM.bl cells [35] was greater than 50 mg/L. It also gave an IC80, titer in TZM.bl cells [35] greater than 50 mg/L, a neutralization IC50 [36] greater than 50 mg/L and a neutralization IC80 [36] greater than 50 mg/L.

In the case of PGDM1400 (antibody), the IC50 [1] is reported as greater than 50 mg/L, the IC80 [1] is reported as greater than 50 mg/L and the IC50, titer in TZM.bl cells [2] is reported as 0.002 mg/L. For the same substance, the IC80, titer in TZM.bl cells [2] was 0.005 mg/L, the IC50 [3] was 0.057 mg/L and the IC80 [3] was 0.382 mg/L. It also gave an IC50, titer in TZM.bl cells [4] of 0.055 mg/L, an IC80, titer in TZM.bl cells [4] of 1.45 mg/L and an IC50, titer in TZM.bl cells [5] of 0.011 mg/L. For the same substance, the IC80, titer in TZM.bl cells [5] was 0.051 mg/L, the IC50 [6] was greater than 50 mg/L and the IC80 [6] was greater than 50 mg/L. For the same substance, the IC50, titer in TZM.bl cells [7] was 0.087 mg/L, the IC80, titer in TZM.bl cells [7] was 0.573 mg/L and the IC50, titer in TZM.bl cells [8] was less than 0.001 mg/L. For the same substance, the IC80, titer in TZM.bl cells [8] was less than 0.001 mg/L, the IC50, titer in TZM.bl cells [9] was 0.01 mg/L and the IC80, titer in TZM.bl cells [9] was 0.033 mg/L. It also gave an IC50, titer in TZM.bl cells [10] of 0.001 mg/L, an IC80, titer in TZM.bl cells [10] of 0.004 mg/L and an IC50 [11] greater than 50 mg/L. It also gave an IC80 [11] greater than 50 mg/L, an IC50 [12] of less than 0.001 mg/L and an IC80 [12] of 0.004 mg/L. The IC50 [13] was less than 0.001 mg/L, the IC80 [13] was 0.002 mg/L and the IC50, titer in TZM.bl cells [14] was greater than 50 mg/L. For the same substance, the IC80, titer in TZM.bl cells [14] was greater than 50 mg/L, the IC50 [15] was greater than 50 mg/L and the IC80 [15] was greater than 50 mg/L. For the same substance, the IC50 [16] was 0.002 mg/L, the IC80 [16] was 0.008 mg/L and the IC50, titer in TZM.bl cells [17] was 0.501 mg/L. For the same substance, the IC80, titer in TZM.bl cells [17] was 11.8 mg/L, the IC50 [18] was greater than 50 mg/L and the IC80 [18] was greater than 50 mg/L. The IC50, titer in TZM.bl cells [19] was 8.62 mg/L, the IC80, titer in TZM.bl cells [19] was 43.1 mg/L and the IC50 [20] was 0.001 mg/L. It also gave an IC80 [20] of 0.021 mg/L, an IC50 [21] of 0.694 mg/L and an IC80 [21] greater than 50 mg/L. The IC50, titer in TZM.bl cells [22] was 0.219 mg/L, the IC80, titer in TZM.bl cells [22] was 0.781 mg/L and the IC50, titer in TZM.bl cells [23] was 0.605 mg/L. It also gave an IC80, titer in TZM.bl cells [23] of 5.87 mg/L, an IC50 [24] of 0.004 mg/L and an IC80 [24] of 0.014 mg/L. For the same substance, the IC50 [25] was 0.436 mg/L, the IC80 [25] was 6.53 mg/L and the IC50 [26] was greater than 50 mg/L. It also gave an IC80 [26] greater than 50 mg/L, an IC50 [27] of 5.18 mg/L and an IC80 [27] of 22 mg/L. For the same substance, the IC50 [28] was 0.004 mg/L, the IC80 [28] was 0.014 mg/L and the IC50, titer in TZM.bl cells [29] was less than 0.001 mg/L. It also gave an IC80, titer in TZM.bl cells [29] of less than 0.001 mg/L, an IC50 [30] of 0.072 mg/L and an IC80 [30] of 0.348 mg/L. The IC50 [37] was 0.033 mg/L, the IC80 [37] was 0.175 mg/L and the IC50 [31] was 0.01 mg/L. It also gave an IC80 [31] of 0.043 mg/L, an IC50, titer in TZM.bl cells [32] of 0.013 mg/L and an IC80, titer in TZM.bl cells [32] of 0.041 mg/L. It also gave an IC50 [33] of 0.002 mg/L, an IC80 [33] of 0.031 mg/L and an IC50 [34] of less than 0.001 mg/L. It also gave an IC80 [34] of 0.002 mg/L, an IC50, titer in TZM.bl cells [35] of 0.004 mg/L and an IC80, titer in TZM.bl cells [35] of 0.028 mg/L. For the same substance, the IC50 [36] was greater than 50 mg/L and the IC80 [36] was greater than 50 mg/L.
